Our source for the protein stability index values is the supplement of paper PMC10567573.

The nature of this data set: protein stability index of a GFP-peptide fusion (GPS, HEK-293T) (PSI 1-6); higher = more stable.
Setting [1] is: treatment: DMSO, c terminus: a fixed tail appended.
Where [2] appears, read: treatment: MLN4924 1 uM, 8 h, c terminus: a fixed tail appended.
[3] abbreviates: treatment: DMSO, c terminus: native.
Where [4] appears, read: treatment: MLN4924 1 uM, 8 h, c terminus: native.

± gives the standard deviation.
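Further: 24-mer peptide tiles fused after GFP, lentivirally expressed, FACS-sorted into six equal bins by GFP/DsRed ratio, decoded by Illumina sequencing, PSI is the read-weighted mean bin number.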

For the sequence EQLERIERKNAEMYKLSSEQFHEA [CHCHD6], the protein stability index is 4.52 ± 0.46 under setting [1] and 4.78 ± 0.12 under setting [2].
For AMEAVRVNPLHVDSTWLLLRRIRA [SLC25A39], in that order: 2.66 ± 0.41 and 2.81 ± 0.19.
On the same counts, the results for ANGTVIAEFILLGLLEAPGLQPVV [OR3A1] are 3.06 ± 0.61 and 2.7 ± 0.35.
For DKLKIDLLPDGRHAVVEVEDVPLA [TAF7L], in that order: 4.61 ± 0.15 and 4.8 ± 0.24.
As for QLEQVIESQKANQCAVLIYTSGTT [ACSBG2], the protein stability index is 2.52 ± 0.32 under setting [1] and 2.51 ± 0.25 under setting [2].
Consider RRLLVKDPKRRMTIAQSLEHSWIK [DAPK3], for which the protein stability index under setting [1] came to 2.67 ± 0.25 and the protein stability index under setting [2] was 2.82 ± 0.4.
For EKYKTQIDHYVGIARDQTKSIVEK [RTN3], in that order: 4.07 ± 0.2 and 4.15 ± 0.31.
On the same counts, the results for GGGNDRVRNLQSEVEGVKNIMTQN [VAMP8] are 4.61 ± 0.34 and 4.75 ± 0.35.
As for VNSQFTAAVFKETFKSLSHIDPDV [ALG2], the protein stability index runs as follows: under setting [1], 2.86 ± 0.47; under setting [2], 3.05 ± 0.33.
For the sequence GGYLQRTTYDRRSSQERKFMEERE [RSPH3], the protein stability index runs as follows: under setting [1], 4.82 ± 0.21; under setting [2], 4.76 ± 0.17.
In the case of IAEVCCTSIVYATEKKQTKVEFPE [KCTD10], the protein stability index by setting is: under setting [1], 3.42 ± 0.18; under setting [2], 3.9 ± 0.39.
For the sequence EGCELPDLPSSLLLPEDMALRNLP [SMG5], the protein stability index under setting [1] was 4.4 ± 0.1 and the protein stability index under setting [2] worked out at 4.49 ± 0.15.
Take VRNLQSEVEGVKNIMTQNVERILA [VAMP8]: the protein stability index under setting [1] is 3.01 ± 0.41 and the protein stability index under setting [2] stood at 2.96 ± 0.51.
On the same counts, the results for LHAELCQAGSSQGLSLCQFQNFSL [LPCAT4] are 2.42 ± 0.33 and 2.21 ± 0.13.
On the same counts, the results for SILFGHENRVSTLRVSPDGTAFCS [GNB5] are 2.88 ± 0.41 and 3.02 ± 0.13.
For SALERLETKLHLLRQEMVNLRATD [LURAP1L], in that order: 2.73 ± 0.22 and 2.79 ± 0.58.
As to YFFPVIFSKASDSLQLVFGIELME [MAGEA6], the protein stability index under setting [1] came to 3 ± 0.29 and the protein stability index under setting [2] was 3.02 ± 0.54.
On the same counts, the results for MYSEIQRERADIGGLMARPEYREW [FAM107A] are 2.93 ± 0.26 and 2.92 ± 0.42.
The sequence GSGSSYVQNGTGNAYEEEANKQS [CNOT7] returned a protein stability index under setting [3] of 5.37 ± 0.19 and a protein stability index under setting [4] of 5.2 ± 0.23.
VKESGERKVTDSISKSLELCNEIS [DLC1]: the protein stability index was 4.52 ± 0.11 under setting [1] and 4.82 ± 0.21 under setting [2].
Turning to MMPLAEAGALAQGGGPSATEWACI [C6orf223], the protein stability index worked out at 3.65 ± 0.34 under setting [1] and 3.52 ± 0.25 under setting [2].
For TERDEIEDVKCQEDQKLQVLLTQI [TRIM15], in that order: 4.34 ± 0.2 and 4.54 ± 0.12.
On the same counts, the results for LTPKSTPVKTLPFSPSQFLNFWNK [MYBL2] are 2.24 ± 0.26 and 2.4 ± 0.18.
RWSPAQEESFRQMVVIHKEIPTGK [ZNF232]: the protein stability index by setting is: under setting [1], 3.87 ± 0.42; under setting [2], 3.99 ± 0.17.
For NFLIGRQGNKKEHVIHIIDFGLAK [CSNK1G1], in that order: 2.45 ± 0.66 and 1.89 ± 0.39.
On the same counts, the results for NYVAKNFAQALGCVLYACFILGRL [SOAT2] are 3.46 ± 0.38 and 2.85 ± 0.38.
For the sequence SANFHSLDDIYYFGGQNAHNQIAI [FUT8], the protein stability index runs as follows: under setting [1], 2.4 ± 0.72; under setting [2], 2.3 ± 0.24.
For AAKPAASITSKPATLTTTSATSKL [ZNF207], in that order: 4.6 ± 0.12 and 4.6 ± 0.17.
For DGAWCAGRNDLQQWIEVDARRLTR [CPXM2], in that order: 3.48 ± 0.35 and 3.95 ± 0.52.
For PSSQLMPVKKQLQGASWELQSLRP [ZNF396], in that order: 3.66 ± 0.34 and 3.78 ± 0.25.
As for LNGYRLGERVLQVSFKTSKQHKA [ELAVL3], the protein stability index is, setting by setting: under setting [3], 3.16 ± 0.29; under setting [4], 2.69 ± 0.42.
As for PISVHCSAGVGRTGVFITLSIVLE [PTPRD], the protein stability index is, setting by setting: under setting [1], 2.96 ± 0.26; under setting [2], 2.6 ± 0.21.
Consider SDTIPYLKKFLYNFDNPWNFQNIP [MIA2], for which the protein stability index is 2.28 ± 0.84 under setting [1] and 2.5 ± 0.59 under setting [2].
For PDLRDIELKLGRKVPESLVRSLRG [LURAP1L], in that order: 3.16 ± 0.4 and 3.17 ± 0.41.
On to TLTWDSGNPEPVSYYIIQHKPKNS [PTPRD], for which the protein stability index was found to be 2.69 ± 0.12 under setting [1] and 3.05 ± 0.41 under setting [2].
On the same counts, the results for SLTVPLLGAMMLLESPIDPQPLSF [APMAP] are 2.46 ± 0.56 and 2.81 ± 0.51.
For PYREDEEGAFGEHGSQGTYSNTKE [MAP2], in that order: 5.66 ± 0.22 and 5.72 ± 0.2.
For WLPLATLIDEKVLILHGGVSDITD [PPEF2], in that order: 2.22 ± 0.64 and 2.4 ± 0.58.
Regarding IWKLNLQTFQWVKLPATMPEPVYF [KLHDC10], the protein stability index by setting is: under setting [1], 2.82 ± 0.7; under setting [2], 2.63 ± 0.33.
For DYSFLSLGVYSALREIAFTRQLHE [ATE1], in that order: 2.99 ± 1.3 and 2.68 ± 0.94.
For GADCGIQWWNAVFIMLLIGIVLPV [LYSMD4], in that order: 2.88 ± 0.1 and 3.03 ± 0.45.
On the same counts, the results for RALEEANTELEVKIRDWYQRQAPG [KRT17] are 3.37 ± 0.16 and 3.58 ± 0.4.
Consider MFQGWNCGDYFPDGITNGASWYSL [CPN1], for which the protein stability index under setting [1] was 2.7 ± 0.37 and the protein stability index under setting [2] is 2.31 ± 0.45.
With HDGEDVACPQGGVQYGAGVACSET [LOXL2], the protein stability index amounted to 4.99 ± 0.31 under setting [1] and 5.42 ± 0.32 under setting [2].
For the sequence MSRMINKYKRRRFQKTKNLLTGET [CLPTM1], the protein stability index runs as follows: under setting [1], 3.05 ± 0.32; under setting [2], 3.26 ± 0.35.
For LSDNATAFSNRSKQLRRQMWWRGC [VAMP4], in that order: 2.54 ± 0.048 and 2.67 ± 0.33.
For FRDEKDYPASTSQDSFEAAGNSTS [KCNA3], in that order: 5.55 ± 0.25 and 5.47 ± 0.077.
PHFLQGGPFPLPYTAPGGYLDVGS [TBX6]: the protein stability index under setting [1] stood at 2.93 ± 0.56 and the protein stability index under setting [2] was 2.76 ± 0.33.
For NLVLSEDRKSVKFVETRLRDLPDT [TRIM39], the protein stability index is, setting by setting: under setting [1], 4.31 ± 0.25; under setting [2], 4.37 ± 0.2.
For YDFDTQYAFVGDYSGQITLLKLEQ [WDFY1], in that order: 2.19 ± 0.11 and 2.33 ± 0.27.
As to FGRGSRTVDLELELQIELLRETKR [ARFIP2], the protein stability index reads like this: under setting [1], 2.26 ± 0.15; under setting [2], 2.32 ± 0.26.
For QYFTNRLDMSQNVSLVTAELSKDA [SLC29A1], in that order: 4.2 ± 0.21 and 4.25 ± 0.24.
On the same counts, the results for HNCAHFCINIPGSYVCRCKQGYIL [MATN2] are 2.48 ± 0.2 and 2.71 ± 0.27.
On the same counts, the results for IICYSITDRRSFHEVREFKQLIYR [RIT1] are 2.41 ± 0.25 and 2.53 ± 0.46.
As to DNSPTSNSLEGGTDATAFWWGEWT [ADAMTSL2], the protein stability index under setting [1] is 3.62 ± 0.35.
With PVLHPSEERAAPVLSCEAATQTER [FAM189A2], the protein stability index runs as follows: under setting [1], 5.47 ± 0.27; under setting [2], 5.44 ± 0.13.
Regarding FLGISIVGQSNERGDGGIYIGSIM [DVL3], the protein stability index came out at 2.87 ± 0.99 under setting [1] and 2.61 ± 0.68 under setting [2].
For NKYMVTDGAAYIGNFDWVGNDFTQ [PLD5], in that order: 2.87 ± 0.25 and 2.62 ± 0.3.
For GKSRLSPAGEMKPMPLSEGKSILL [BCL2L13], the protein stability index is, setting by setting: under setting [1], 3.44 ± 0.32; under setting [2], 3.44 ± 0.32.
For SAHFTSGPLVPRLAGMANHGSPQL [TBX5], the protein stability index by setting is: under setting [1], 3.35 ± 0.21; under setting [2], 3.5 ± 0.13.
For HPVCSLCWSRDGHKLVSASTDNIV [RBBP5], the protein stability index is, setting by setting: under setting [1], 2.72 ± 0.28; under setting [2], 2.95 ± 0.44.
On the same counts, the results for KASNSIISCFNNAPPAKLACPVCS [FAN1] are 2.92 ± 0.15 and 3.1 ± 0.4.
For NITRLQLETEIEALKEELLFMKKN [KRT18], in that order: 2.82 ± 0.091 and 3.05 ± 0.51.
For RGDRGPGPALAGEPAGSLRELGVW [C2CD2L], in that order: 3.25 ± 0.14 and 3.55 ± 0.27.
With LWHLAITDRSFNIVDIKPANMEDL [PPP2R2C], the protein stability index is 2.36 ± 0.23 under setting [1] and 2.41 ± 0.28 under setting [2].
On the same counts, the results for NMLKNIELFDKLSLRFNGRVLFIK [KCTD10] are 2.68 ± 0.48 and 2.43 ± 0.35.
On the same counts, the results for LAEAKYYLVQGLVEECQAALQNKD [KCTD10] are 3.24 ± 0.17 and 3.38 ± 0.29.
For FFIQTVRPKDTVMCYRVRWEEAAP [MYORG], in that order: 2.62 ± 0.73 and 2.56 ± 0.92.
For SWGIAGETELALVKESGERKVTDS [DLC1], the protein stability index is, setting by setting: under setting [1], 5.14 ± 0.3; under setting [2], 5.46 ± 0.19.
For ANNRILAERIAKEIQVIPLQRDDE [IMPA1], in that order: 4.17 ± 0.38 and 4.04 ± 0.068.
For CYKGHKEIAQYLLEKGADVNRKSV [FEM1C], in that order: 3.1 ± 0.14 and 3.38 ± 0.18.
On the same counts, the results for VPDVKEMEKSSFTEYIESPDVENE [TAF7L] are 5.59 ± 0.17 and 5.61 ± 0.23.
